In the RNAGym collection of RNA variant scans (doi:10.1073/pnas.2313332121):

B1: TPR t1 (parent)
chain: GACCAAUCUGCCCUCAGAGCUCGAGAACAUCUUCGGAUGCAGAGGAGGCAGGCUUCGGUGGCGCGAUAGCGCCAACGUCCUCAACCUCCAAUGCAUCCCACCACAUGAUGAUGCCUGAAGAGCCUUGGUUUUUUG

Variants of: B1
Assay: polymerase ribozyme fitness, log enrichment relative to wild type (log ratio); higher = more active; in vitro selection for triplet polymerase activity
How it was run: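 To select mutant libraries of each subunit of a heterodimeric triplet polymerase ribozyme, built by PCR and transcribed, each was annealed with a biotinylated primer, partner subunit and triplets, then incubated frozen at −7 °C. Extended constructs were gel-excised, captured on streptavidin beads and amplified by RT-PCR, in one round carried out in triplicate. Illumina sequencing of input and output libraries kept genotypes with ≥10 input reads and ≥1 read per output. Fitness is the base-2 logarithm of genotype enrichment relative to wild-type enrichment, from inverse-variance-weighted replicate averages.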

| Variant | polymerase ribozyme fitness (log ratio) |
| --- | --- |
| A5G A18G G44C G48C U55C U59G G69U G117U | -5.43 |
| A5C C11U G122A | 0.875 |
| C4U C15A C82G | -3.56 |
| C4G U9G A41G U96C A111C U116A C123G | -1.71 |
| A5C C8G U33G C97U | -5.64 |
| A5C G63A U81A | -2.31 |
| C4U C49U C56G C114A G127A | -3.57 |
| A5U C31U G110C | -6.73 |
| A5C C22U C89A A121G | -4.41 |
| A5G A18G G117U U125A | -2.93 |
| C4U U14A C73U | -4.13 |
| C4G C70G | -3.78 |
| C4G A46U C53A C72A C86A | -2.23 |
| C4U C11G C12A G19C C62G | -4.71 |
| A5G A29U G48C U112G | -4.65 |
| A5C A84U | -1.12 |
| A5G U14A C73U | -2.23 |
| C4U U7A C11A | -0.665 |
| C4G G51U G120U | -4.56 |
| A5C U7C G63U C94G G113C A118C | -6.82 |
| A5C C89A A111C | -3.6 |

| Variant | polymerase ribozyme fitness (log ratio) |
| --- | --- |
| A5C C12A | -0.824 |
| A5C C11G C79U G117C | -1.88 |
| C4G A66G C115A | -2.94 |
| C4U C11U A37U G71C | -1.4 |
| C4G A27U G45A G61A C86A C97A G117A | -6.02 |
| A5C A27G G63C A121G | 0.00315 |
| A5U C22G A66U U112A U126G | -3.51 |
| A5C G58A G60C | -0.634 |
| C4A U7A G110U | -2.4 |
| C4G G61A U87G | -2.28 |
| C4U A6G C13G A83G | -1.95 |
| C4G G39U A46C C72A U87G C88G | -3.06 |
| A5U A6G A46C G61A C115G | -2.35 |
| C4U C13A A46C A50G C72U | -3.05 |
| A5G G51U A83U A121C | -3.06 |
| A5G G42U C115U | -1.79 |
| A5G C13A A46U G63A U133A | -2.84 |
| C4G C8G C53A U112G G120A | -2.51 |
| C4U A16U G42U U59G A84U | -4.24 |
| C4U G42U U59A | -2.49 |
| C4G U87G | -1.54 |

| Variant | polymerase ribozyme fitness (log ratio) |
| --- | --- |
| C4G U32C G45U | -3.28 |
| C4U A6G G39A C72A C85A A90G C114U | -3.29 |
| A5C G42U G48C G69U | -0.971 |
| C4U A27C U54C C82A | -3.17 |
| A5G C88A A91C C114G A121C | -0.389 |
| C4U C13G C15A G19A A90C C115U A119G | -5.79 |
| C4G G44C C62U | -2.44 |
| C4U C56U | -0.85 |
| C4U A5U C31G G45U U54A A68U G110A C114U | -6.24 |
| A5C A74C | -1.06 |
| C4U C72G C94G G113A G122U | -3.87 |
| C4A G69U A74G A90U U106A G117C | -4.9 |
| A5G A37G C53U A105G U112G U125G G135U | -5.89 |
| A5U C56A C102A U116C | -5.7 |
| A5C C12A A27U | -4.25 |
| C4U G69A C89U C123G | -3.15 |
| C4U C56A U130C | -0.451 |
| A5C A26U G36A C88U | -6.38 |
| C4U A16C C64U | -4.16 |
| A5G G36U G61A A111C A119C | -2.68 |
| C4U C49U C98U | -2.14 |

| Variant | polymerase ribozyme fitness (log ratio) |
| --- | --- |
| C4U C72A | -0.193 |
| C4U G69U G93U | -1.17 |
| C4G A5C C82U U125A | -1.74 |
| C4G C12A U87G C115U | -3.74 |
| C4G U7G C8G G71A C98G A103C C114A G122U | -5.04 |
| A5U C8G G63U | -0.752 |
| A5C C56G C80U | -1.77 |
| C4G U106C C115G | -4.76 |
| A5G A111G G122U | -2.04 |
| A5U C73A | -0.847 |
| A5C A26G C88U U116C U129A | -6.24 |
| A5C A37C C70U G110U | -4.1 |
| A5C A43U U78C G93C | -4.85 |
| C4U C49U C73G A121C | 0.746 |
| C4U A24U C70G U92G U116C G120C | -6.86 |
| A5G C64U | 0.17 |
| A5C A26U C62U | -4.3 |
| A5G C13A C20U U129C | -4.45 |
| A5G C72A | 0.0113 |
| A5C C12A C73U | -0.891 |
| A5U C40A C115G G120A | -3.72 |
